From patent US11872307B2, “Liquisoft capsules” (PATHEON SOFTGELS INC., priority 2015, dated 2024)

Assay: Appearance / precipitation of matrix fill
Type: physicochemical
Conditions: dextromethorphan hydrobromide 30 mg, menthol 5 mg
Description: Formulas 14, 15, and 16 were the initial matrix prototypes for dextromethorphan hydrobromide (30 mg) and menthol (5 mg). Three different taste-masking agents were tested: mannitol, thaumatin (Talin®) and glycyrrhizic acid salts (MagnaSweet®).
Thaumatin and glycyrrhizic acid salts were employed with the lower active pharmaceutical ingredient dose, individually and as a combination. […] Thus, the glycyrrhizic acid salts were not further assessed for chemical stability. Thus, Formula 19 was formulated using thaumatin and used for excipient compatibility studies.

Q: With Thaumatin as the substance, how does the “appearance of matrix fill” value read?
A: hazy appearance
